Test results reported in patent publication US11629364B2, “Methods for synthesizing anticoagulant polysaccharides” (OPTIMVIA, LLC, priority 2019, dated 2023).

Experiments:
[1] = 3OST activity: 3-O sulfated products detected by LCMS after lyase digestion; format: biochemical
Procedure: A study was conducted in accordance with embodiments of the present disclosure to confirm 3OST activity of enzymes comprising the amino acid sequence of SEQ ID NO: 24, SEQ ID NO: 26, or SEQ ID NO: 28 by detecting the presence of 3-O sulfated polysaccharide products as a result of their sulfotransfer reaction, using a reaction, using a similar LCMS procedure as in Example 3, except that the sulfo acceptor polysaccharide was commercially-available heparin (CAS code: 9041-08-1, available from Millipore Sigma). Even though the unmodified heparin contains ˜3.5% (w/w) of 3-O sulfated glucosamine residues, about ˜60% of the glucosamine residues are N,6-sulfated and are adjacent to a 2-O sulfated hexuronic acid residue, as in Formula X. Consequently, these N,6-sulfated glucosamine residues can still be 3-O sulfated.

[2] = NST activity: N-sulfated products detected by SAX-HPLC after lyase digestion; format: biochemical; conditions: for NST activity: N-sulfated products by SAX: procedures of Example 2, expected
Procedure: A study was conducted in accordance with embodiments of the present disclosure to confirm NST activity of enzymes comprising the amino acid sequence of SEQ ID NO: 2, SEQ ID NO: 4, SEQ ID NO: 6, SEQ ID NO: 8, SEQ ID NO: 10, or SEQ ID NO: 12 by detecting the presence of N-sulfated polysaccharide products formed as a result of their sulfotransfer reaction, using mass spectrometry (MS). Each engineered enzyme was purified according to the procedure of Example 1. Sulfotransferase activity was monitored in 100 μL reactions containing 50 μM of enzyme. To each purified protein solution, 20 mg of an aryl sulfate compound (either PNS or NCS) was dissolved in 2 mL of reaction buffer (50 mM IVIES pH 7.0, 2 mM CaCl2)), added to the protein solution, and incubated at 37° C. for 10 min. 2.5 mL of 2 mg/mL solution of N-deacetylated heparosan was added to protein/donor solution and incubated overnight at 37° C. The N-deacetylated heparosan was synthesized according to the protocol described in Balagurunathan, K. et al (eds.) (2015), Glycosaminoglycans: Chemistry and Biology, Methods in Molecular Biology, vol. 1229, DOI 10.1007/978-1-4939-1714-3_2, ©Springer Science+Business Media, New York, pp. 11-19 (section 3.1). To purify the N-sulfated product, the incubated reaction mixture was centrifuged the following day at 5,000×g for 10 min. The filter was washed once with 2 mL water, and centrifuged again. The filtrate was added to a 1K MWCO Dialysis membrane, dialyzed for 2 days in Milli-Q water, with water changes at 1 h, 2 h, 8 h, 16 h, 32 h, and then lyophilized.
The lyophilized N-sulfated products from each reaction were subsequently digested with a mixture of three carbon-oxygen lyases comprising the amino acid sequences of SEQ ID NO: 30, SEQ ID NO: 31, and SEQ ID NO: 32, which catalyze the β-eliminative cleavage of heparosan-based polysaccharides. Such lyases are available from New England Biolabs, among other chemical and biological commercial entities. 1 μL of each lyase was incubated with 50 μg of the lyophilized sulfated polysaccharide product and the provided digestion buffer, and incubated over 24 hours according to the packaged instructions provided by New England Biolabs with each lyase. After digestion, the lyase enzymes were inactivated by heating to 100° C. for 5 minutes. Samples were centrifuged at 14,000 rpm for 30 minutes before introduction to a strong anion exchange, high performance liquid chromatography (SAX) analysis. SAX analysis was performed on a Dionex Ultimate 3000 LC system interface. Separation was carried out on a 4.6×250 mm Waters Spherisorb analytical column with 5.0 μm particle size at 45° C. Mobile phase solution A was 2.5 mM sodium phosphate, pH 3.5, while mobile phase solution B was 2.5 mM sodium phosphate, pH 3.5, and 1.2 M Sodium perchlorate. After each sample was loaded onto the column, mobile phase solutions were applied to the column at a ratio of 98% mobile phase solution A and 2% mobile phase solution B for five minutes at a flow rate of 1.4 mL/min. After five minutes, a linear gradient of increasing mobile phase solution B was applied until the ratio of mobile phase solution A to mobile phase solution B was 50:50.

Row | Molecule | NST activity: N-sulfated products by SAX [2] | also measured
1 | SEQ ID NO: 28: engineered aryl sulfate-dependent 3OST enzyme, mutant of isoform 1 of the human 3OST enzyme (protein, Amino acid sequence encoding for engineered arylsulfate-dependent 3-O-sulfotransferase variant 3, engineered aryl sulfate-dependent 3OST enzyme, mutant of isoform 1 of the human 3OST enzyme) MGTASNGSTQQLPQTIIIGVGHGGTRALLEMLSLHPDVAAAENEVHFFDWEEHYSQGLGWYLTQMPFSSPHQLTVEKTHSYFTSPKVPERIHSMNPTIRLLLILRDPSERVLSLGTHLLYVHLQKHKPYPPIEDLLMRDGRLNLDYTGLNRSLYHAHMLNWLRFFPLGHIHIVDGDRLIRDPFPEIQKVERFLKLSPQINASNFYFNKTKGFYCLRDSGKDRCLHESKGRAHPQVDPKLLDKLHEYFHEPNKKFFKLVGRTFDWH |  | 3OST activity with PNS ([1]; PNS as aryl sulfate compound): not active; abundance of 3-O sulfation in product ([1]; relative to the commercial heparin standard): higher abundance of 3-O sulfation
2 | SEQ ID NO: 35: mutant of N-sulfotransferase domain of pig NDST carrying the SEQ ID NO: 2 mutations (protein, Amino acid sequence encoding for engineered arylsulfate-dependent N-sulfotransferase variant 9) MSEEKDPLWQDPCEDKRHKDIWSKEKTCDRFPKLLIIGPQKTGAWALYHFLGLHPDLSSNYPSSETHGSIQFFNGHNYHKGIDWYMDFFPIPSNTTSDFYFEKSANYFDSDVAPRRAAALLPKAKVLTILINPADRAYSWYQHQRAHDDPAALRYTFHEVITAGPDASLKLRALQNRCLVPGWYATHLERWLGAFHANQILVLDGKLLRTEPARVMDTVQKFLGVTNTIDYHKTLAFDPKKGFWCQLLEGGKTKCLGRSHGRKYPDMDPDSRAFLRDYYRDHNIELSKLLYKMGQTLPTWLREELQNTR | confirm the presence of N-sulfated polysaccharide products | 
3 | SEQ ID NO: 40: mutant of N-sulfotransferase domain of pig NDST carrying the SEQ ID NO: 12 mutations (protein, Amino acid sequence encoding for engineered arylsulfate-dependent N-sulfotransferase variant 14) MSEEKDPLWQDPCEDKRHKDIWSKEKTCDRFPKLLIIGPAKTGAWLLHHFLGLHPDLSSNYPSSETHSSIQFFNGHNYHKGIDWYMDFFPIPSNTTSDFYFETSANYFDSDVAPRRAAALLPKAKVLTILINPADRAYSWYQHQRAHDDPAALRYTFHEVITAGPDASLKLRALQNRCLVPGWYATHLERWLGAFHANQILVLDGKLLRTEPARVMDTVQKFLGVTNTIDYHKTLAFDPKKGFWCQLLEGGKTKCAHRGLGRKYPDMDPDSRAFLRDYYRDHNIELSKLLYKMGQTLPTWLREELQNTR | confirm the presence of N-sulfated polysaccharide products | 
4 | SEQ ID NO: 38: mutant of N-sulfotransferase domain of pig NDST carrying the SEQ ID NO: 8 mutations (protein, Amino acid sequence encoding for engineered arylsulfate-dependent N-sulfotransferase variant 12) MSEEKDPLWQDPCEDKRHKDIWSKEKTCDRFPKLLIIGPHGTGGHALYLFLGLHPDLSSNYPSSETFLSIQFFNGHNYHKGIDWYMDFFPIPSNTTSDFYFEHSGNYFDSDVAPRRAAALLPKAKVLTILINPADRAYRAYVWQRAHDDPAALRYTFHEVITAGPDASLKLRALQNRCLVPGWYATHLERWLGAFHANQILVLDGKLLRTEPARVMDTVQKFLGVTNTIDYHKTLAFDPKKGFWCQLLEGGKTKCLGRSLGSKYPDMDPDSRAFLRDYYRDHNIELSKLLYKMGQTLPTWLREELQNTR | confirm the presence of N-sulfated polysaccharide products | 
5 | SEQ ID NO: 39: mutant of N-sulfotransferase domain of pig NDST carrying the SEQ ID NO: 10 mutations (protein, Amino acid sequence encoding for engineered arylsulfate-dependent N-sulfotransferase variant 13) MSEEKDPLWQDPCEDKRHKDIWSKEKTCDRFPKLLIIGPHKTGVHALYLFLGLHPDLSSNYPSSETGNHIGFFGGHNYHKGIDWYMDFFPIPSNTTSDFYFEKSAWYFDSDVAPRRAAALLPKAKVLTILINPADRAYSWYQHQRAHDDPAALRYTFHEVITAGPDASLKLRALQNRCLVPGWYATHLERWLGAFHANQILVLDGKLLRTEPARVMDTVQKFLGVTNTIDYHKTLAFDPKKGFWCQLLEGGKTKCLGRSVGRKYPDMDPDSRAFLRDYYRDHNIELSKLLYKMGQTLPTWLREELQNTR | confirm the presence of N-sulfated polysaccharide products | 
6 | SEQ ID NO: 8: engineered aryl sulfate-dependent NST enzyme, mutant of N-sulfotransferase domain of human NDST (protein, Amino acid sequence encoding for engineered arylsulfate-dependent N-sulfotransferase variant 4, engineered aryl sulfate-dependent NST enzyme, mutant of N-sulfotransferase domain of human NDST) MSEEKDPLWQDPCEDKRHKDIWSKEKTCDRFPKLLIIGPHGTGGHALYLFLGMHPDLSSNYPSSETFLSIQFFNGHNYHKGIDWYMEFFPIPSNTTSDFYFEHSGNYFDSEVAPRRAAALLPKAKVLTILINPADRAYRAYVWQRAHDDPVALKYTFHEVITAGSDASSKLRALQNRCLVPGWYATHIERWLSAYHANQILVLDGKLLRTEPAKVMDMVQKFLGVTNTIDYHKTLAFDPKKGFWCQLLEGGKTKCLGKSLGSKYPEMDLDSRAFLKDYYRDHNIELSKLLYKMGQTLPTWLREDLQNTR |  | NST sulfotransferase activity with aryl sulfate compounds ([2]; PNS or NCS as sulfo donor, N-deacetylated heparosan acceptor, 37° C. overnight): activity with both aryl sulfate compounds
7 | SEQ ID NO: 37: mutant of N-sulfotransferase domain of pig NDST carrying the SEQ ID NO: 6 mutations (protein, Amino acid sequence encoding for engineered arylsulfate-dependent N-sulfotransferase variant 11) MSEEKDPLWQDPCEDKRHKDIWSKEKTCDRFPKLLIIGPHHTGGHALYLFLGLHPDLSSNYPSSETGEEIQFFNGHNYHKGIDWYMDFFPIPSNTTSDFYFEKSANYFDSDVAPRRAAALLPKAKVLTILINPADRAYSWYQAQRAHDDPAALRYTFHEVITAGPDASLKLRALQNRCLVPGWYATHLERWLGAFHANQILVLDGKLLRTEPARVMDTVQKFLGVTNTIDYHKTLAFDPKKGFWCQLLEGGKTKCGGRHLGRKYPDMDPDSRAFLRDYYRDHNIELSKLLYKMGQTLPTWLREELQNTR | confirm the presence of N-sulfated polysaccharide products | 
8 | SEQ ID NO: 36: mutant of N-sulfotransferase domain of pig NDST carrying the SEQ ID NO: 4 mutations (protein, Amino acid sequence encoding for engineered arylsulfate-dependent N-sulfotransferase variant 10) MSEEKDPLWQDPCEDKRHKDIWSKEKTCDRFPKLLIIGPSKTGAFLLTHFLGLHPDLSSNYPSSETGHSIQFFNGHNYHKGIDWYMDFFPIPSNTTSDFYFETSSNYFDSDVAPRRAAALLPKAKVLTILINPADRAYSWYQHQRAHDDPAALRYTFHEVITAGPDASLKLRALQNRCLVPGWYATHLERWLGAFHANQILVLDGKLLRTEPARVMDTVQKFLGVTNTIDYHKTLAFDPKKGFWCQLLEGGKTKCHGRRWGRKYPDMDPDSRAFLRDYYRDHNIELSKLLYKMGQTLPTWLREELQNTR | confirm the presence of N-sulfated polysaccharide products | 
